Assays:
Test in all cases: EMSA
Conditions in all cases: LightShift Chemiluminescent EMSA kit protocol; 20 fmol biotin-labeled DNA, 4 pmol protein (where stated); buffer, salt, pH and temperature not stated
[1] = system: GmRAV1 (Glycine max), ORF:a1ee9a9b
[2] = target: OsWRKY71 (Oryza sativa) (UniProt Q6QHD1)
[3] = target: T1, OsWRKY121 (Oryza sativa) (UniProt Q75KW2)
T1 sequence: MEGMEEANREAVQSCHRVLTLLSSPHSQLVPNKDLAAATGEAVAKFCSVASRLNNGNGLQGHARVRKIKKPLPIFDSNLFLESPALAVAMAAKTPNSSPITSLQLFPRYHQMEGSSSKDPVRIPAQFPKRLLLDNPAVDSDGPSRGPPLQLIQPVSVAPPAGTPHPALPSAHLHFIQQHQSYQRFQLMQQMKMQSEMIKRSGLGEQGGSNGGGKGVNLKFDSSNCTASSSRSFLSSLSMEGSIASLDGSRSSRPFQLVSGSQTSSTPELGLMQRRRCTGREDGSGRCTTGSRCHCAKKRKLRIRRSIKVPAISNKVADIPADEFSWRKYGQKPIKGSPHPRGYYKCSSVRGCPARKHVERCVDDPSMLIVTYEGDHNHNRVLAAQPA

GmRAV1 (Glycine max), ORF:a1ee9a9b, sequence (chain, as listed by the source): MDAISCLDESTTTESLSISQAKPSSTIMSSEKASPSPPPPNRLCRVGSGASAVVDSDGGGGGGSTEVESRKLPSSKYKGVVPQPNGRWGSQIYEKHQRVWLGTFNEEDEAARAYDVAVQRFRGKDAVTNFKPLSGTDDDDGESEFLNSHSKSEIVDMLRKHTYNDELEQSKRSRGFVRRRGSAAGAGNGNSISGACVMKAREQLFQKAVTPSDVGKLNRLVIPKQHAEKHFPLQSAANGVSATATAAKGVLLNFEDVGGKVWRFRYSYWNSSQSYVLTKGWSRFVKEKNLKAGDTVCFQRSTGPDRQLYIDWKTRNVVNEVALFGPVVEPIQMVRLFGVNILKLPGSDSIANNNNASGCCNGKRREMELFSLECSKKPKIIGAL
OsWRKY71 (Oryza sativa), sequence (Q6QHD1 whole entry): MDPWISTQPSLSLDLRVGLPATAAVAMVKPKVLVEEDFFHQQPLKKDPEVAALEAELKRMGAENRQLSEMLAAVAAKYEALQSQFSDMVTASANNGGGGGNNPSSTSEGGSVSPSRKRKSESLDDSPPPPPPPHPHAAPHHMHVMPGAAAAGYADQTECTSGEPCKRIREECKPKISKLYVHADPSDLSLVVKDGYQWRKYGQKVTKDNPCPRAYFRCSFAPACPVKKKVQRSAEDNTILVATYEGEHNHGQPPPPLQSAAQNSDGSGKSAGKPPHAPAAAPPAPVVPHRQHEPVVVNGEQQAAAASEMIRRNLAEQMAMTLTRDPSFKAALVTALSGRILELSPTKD

Sequence: GGCATTGACATGGATGGATGGAACACCCTCATAGTCACATGCCACAACAGAGTAACGCTAAACAAAATGTATTAACAAAAACTATAGGATCATGCTTTCTTAATTTAAAAACATAGG (double strand) [GmNF-YC4-1 promoter P1]
- binding [1]: no binding

Sequence: GGATTACATTGAGTAATGCACATAAATTATTATAAACCTTCCATATTTGTCTTCAACAAATAATCCTAAAAATTAATGTTAACAAAAACTGACCACCTATGTTTTTAAATTAAGAAAGCATG (double strand) [GmNF-YC4-1 promoter P2]
- binding [1]: binds

Sequence: AGCATTATGATGGCTAAGGATTGTCCTTTCGTTCAGGAAAAGTACAAAATCAAGGAAAATGCAGA (double strand) [OsNF-YC4 promoter P4]
- binding [2]: no binding

Sequence: GATTAATAATATCCCTAATATTGTGAACAAACTTTGTTGGTAATGTAAAAAAAATTAAAAGAAACAAGATTAAATTACGTATTTAATAATTTAAGATTAA (double strand) [GmNF-YC4-1 promoter P3]
- binding [1]: binds

Sequence: GGCATTGACATGGATGGATGGAACACCCTCATAGTCACATGCCACAACAGAGTAACGCTAAACAAAATGTATTAACAAAAACTATAGGATCATGCTTTCTTAATTTAAAAACATAGGTGGTCAGTTTTTGTTAACATTAATTTTTAGGATTATTTGTTGAAGACAAATATGGAAGGTTTATAATAATTTATGTGCATTACTCAATGTAATCC (double strand) [GmNF-YC4-1 promoter P5]
- binding [1]: binds

Sequence: AACAGCTTGTTGACTGGCTCCCTAGAGCTTTTTGTAAGTTGATCATCGAAGTAGCTAGTTCTCTTCACTTATCAGTCATCACTGTTCTATGTTCTATCTGCATTTTCCTTGATTTTGTACTTTTCCTGAACGAAAGGACAATCCTTAGCCATCATAATGCTATGATCGACTTATTCTGAAGTCATCCGGCCTCGATCCT (double strand) [OsNF-YC4 promoter 198-bp]
- binding [3]: binds

Sequence: TGGCTCCCTAGAGCTTTTTGTAAGTTGATCATCGAAGTAGCTAGTTCTCTTCACTTATCAGTCATCACTGTTCTATGTTCTATCTGCATTTTCCTTGATTTTGTACTTTTCCTGAACGAAAGGACAATCCTT (double strand) [OsNF-YC4 promoter P2]
- binding [2]: binds
- binding [3]: binds

Sequence: TAAAAGAAACAAGATTAAATTACGTATTTAATAATTTAAGATTAATGTTGTTTAATTTGATTTTTTAAATATTTATCTTTCTTTTGAATTTGATTCTTTAGTTCACTTAAG (double strand) [GmNF-YC4-1 promoter P4]
- binding [1]: no binding

Sequence: CCCTAATATTGTGAACAAACTTTGTTGGTAATGTAAAAAAAATTAAAAGAAACAAGATTAAATTACGTATTTAATAATTTAAGATTAATGTTGTTTAATTTGATTTTTTAAATATTTATCTTTCTTTTGAATTTGATTCTTTAGTTCAC (double strand) [GmNF-YC4-1 promoter P6]
- binding [1]: binds

Sequence: ACCAGAGTTCTTTTTCCCCCTCTTCTACATAAACGAAAACAGCTTGTTGACTGGCTCCCTAGAGCTTTTTGTAAGTTGATCATCGAAGTAGCTAGTTCTCTTCACTTATCAGTCATCACTGTTCTATGTTCTATCTGCATTTTCCTTGATTTTGTACTTTTCCTGAACGAAAGGACAATCCTTAGCCATCATAATGCTATGATCGACTTATTCTGAAGTCATCCGGCCTCGATCCTCTTTTGT (double strand) [OsNF-YC4 promoter P5]
- binding [2]: binds
- binding [3]: binds

Sequence: TCCTGAACGAAAGGACAATCCTTAGCCATCATAATGCTATGATCGACTTATTCTGAAGTCATCCGGCCTCGATCCTCTTTTGT (double strand) [OsNF-YC4 promoter P3]
- binding [2]: no binding
- binding [3]: no binding
